In patent publication US20250207140 (published 2025) one finds Kd data, which are given here for one molecule.

The data set concerns the target SARS-CoV-2 spike protein (original strain) (SARS-CoV-2, UniProt P0DTC2 P0DTC2:14-1273). Put plainly: flow.

For orientation: Kd means the equilibrium constant for the complex coming apart.

B1: SEQ ID NO: 14 aptamer (72 nt truncation of SEQ ID NO: 1) (ssRNA)
RNA: GGGAGAGCGGAAGCGUGCUGGGCCCCUUUGACCAUAGGAGGCAAGUCUUAUGUUCAAACUGGUCCAUAACCC
modifications: 2'-F pyrimidines
B1 returned a Kd of 20.7 nM. This counts as double-digit nanomolar.
